Legend:
[1] = molecular target: H3–H4 (H3 refolded with labeled H4 E63C) (UniProt P61830); assay: FRET or BRET
[2] = molecular target: H2A–H2B (H2A T118C labeled with Alexa-488 refolded with H2B) (UniProt P04911); assay: FRET or BRET
Chain of UniProt P04911 (P04911 2-132, chain 1 of 2): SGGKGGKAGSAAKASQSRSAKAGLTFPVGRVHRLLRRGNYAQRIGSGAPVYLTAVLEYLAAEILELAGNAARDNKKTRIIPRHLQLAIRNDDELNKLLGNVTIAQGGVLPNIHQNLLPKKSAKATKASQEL
Chain of UniProt P04911 (P02294 2-131 T119C, chain 2 of 2, further chain): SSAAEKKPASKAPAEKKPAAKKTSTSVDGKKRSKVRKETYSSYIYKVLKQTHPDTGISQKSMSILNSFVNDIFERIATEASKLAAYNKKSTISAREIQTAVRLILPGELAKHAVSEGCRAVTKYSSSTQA

Scm3, full length, labeled with Atto-647N at cysteine 41 (from UniProt Q12334 1-223) (natural protein)
Kd [1]: 196 nM | Kd [2]: 305 nM

From paper PMC4027189
